Measured values published in patent US20110318339A1.
Values belong to the substance of their own block, whether it stands above or below them.

Assays:
[1] = molecular target: rHuman EGF R/Fc Chimera, CF (Cat# 344-ER) (human) (UniProt P00533); experiment: Multispot ECL; Fab 930 nM
[2] = molecular target: rHuman P-Cadherin/Fc Chimera, CF (Cat# 861-PC) (human) (UniProt P22223); experiment: Multispot ECL; Fab 930 nM
[3] = molecular target: rHuman EGF R/Fc Chimera, CF (Cat# 344-ER) (human) (UniProt P00533); experiment: Multispot ECL; Fab 14.5 nM
[4] = molecular target: rHuman P-Cadherin/Fc Chimera, CF (Cat# 861-PC) (human) (UniProt P22223); experiment: Multispot ECL; Fab 14.5 nM
[5] = molecular target: rHuman EGF R/Fc Chimera, CF (Cat# 344-ER) (human) (UniProt P00533); experiment: Multispot ECL; Fab 58.1 nM
[6] = molecular target: rHuman P-Cadherin/Fc Chimera, CF (Cat# 861-PC) (human) (UniProt P22223); experiment: Multispot ECL; Fab 58.1 nM
[7] = molecular target: rHuman EGF R/Fc Chimera, CF (Cat# 344-ER) (human) (UniProt P00533); experiment: Multispot ECL; Fab 232.5 nM
[8] = molecular target: rHuman P-Cadherin/Fc Chimera, CF (Cat# 861-PC) (human) (UniProt P22223); experiment: Multispot ECL; Fab 232.5 nM
[9] = molecular target: rHuman EGF R/Fc Chimera, CF (Cat# 344-ER) (human) (UniProt P00533); experiment: Multispot ECL; Fab […]
[10] = molecular target: rHuman ErbB2/Fc Chimera, CF (Cat# 1129-ER) (human) (UniProt P04626); experiment: Multispot ECL; Fab […]
[11] = molecular target: rHuman Erythropoietin R/Fc Chimera, CF (Cat# 963-ER) (human) (UniProt P19235); experiment: Multispot ECL; Fab […]
Sequence of rHuman Erythropoietin R/Fc Chimera, CF (Cat# 963-ER) (human) (P19235 25-250, change not shown): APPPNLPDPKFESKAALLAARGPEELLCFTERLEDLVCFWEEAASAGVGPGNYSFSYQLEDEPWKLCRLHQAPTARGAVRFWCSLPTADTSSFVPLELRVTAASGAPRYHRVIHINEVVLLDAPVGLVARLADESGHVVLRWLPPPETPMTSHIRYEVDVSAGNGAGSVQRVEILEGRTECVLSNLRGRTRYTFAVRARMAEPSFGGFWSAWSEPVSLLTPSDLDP

[12] = molecular target: rHuman HGF R/c-MET/Fc Chimera, CF (Cat# 358-MT/CF) (human) (UniProt P08581); experiment: Multispot ECL; Fab […]
[13] = molecular target: rHuman IGF-1 sR, (IGF-1 sR), CF (Cat# 391-GR) (human) (UniProt P08069); experiment: Multispot ECL; Fab […]
[14] = molecular target: rHuman Notch-1/Fc Chimera, CF (Cat# 3647-TK) (human) (UniProt P46531); experiment: Multispot ECL; Fab […]
[15] = molecular target: rHuman EGF R/Fc Chimera, CF (Cat# 344-ER) (human) (UniProt P00533); experiment: Multispot ECL; Fab 210 nM
[16] = molecular target: rHuman ErbB2/Fc Chimera, CF (Cat# 1129-ER) (human) (UniProt P04626); experiment: Multispot ECL; Fab 210 nM
[17] = molecular target: rHuman Erythropoietin R/Fc Chimera, CF (Cat# 963-ER) (human) (UniProt P19235); experiment: Multispot ECL; Fab 210 nM
[18] = molecular target: rHuman HGF R/c-MET/Fc Chimera, CF (Cat# 358-MT/CF) (human) (UniProt P08581); experiment: Multispot ECL; Fab 210 nM
[19] = molecular target: rHuman IGF-1 sR, (IGF-1 sR), CF (Cat# 391-GR) (human) (UniProt P08069); experiment: Multispot ECL; Fab 210 nM
[20] = molecular target: rHuman Notch-1/Fc Chimera, CF (Cat# 3647-TK) (human) (UniProt P46531); experiment: Multispot ECL; Fab 210 nM
[21] = molecular target: rHuman EGF R/Fc Chimera, CF (Cat# 344-ER) (human) (UniProt P00533); experiment: Multispot ECL; Fab 3.3 nM
[22] = molecular target: rHuman ErbB2/Fc Chimera, CF (Cat# 1129-ER) (human) (UniProt P04626); experiment: Multispot ECL; Fab 3.3 nM
[23] = molecular target: rHuman Erythropoietin R/Fc Chimera, CF (Cat# 963-ER) (human) (UniProt P19235); experiment: Multispot ECL; Fab 3.3 nM
[24] = molecular target: rHuman HGF R/c-MET/Fc Chimera, CF (Cat# 358-MT/CF) (human) (UniProt P08581); experiment: Multispot ECL; Fab 3.3 nM
[25] = molecular target: rHuman IGF-1 sR, (IGF-1 sR), CF (Cat# 391-GR) (human) (UniProt P08069); experiment: Multispot ECL; Fab 3.3 nM
[26] = molecular target: rHuman Notch-1/Fc Chimera, CF (Cat# 3647-TK) (human) (UniProt P46531); experiment: Multispot ECL; Fab 3.3 nM
[27] = molecular target: rHuman EGF R/Fc Chimera, CF (Cat# 344-ER) (human) (UniProt P00533); experiment: Multispot ECL; Fab 52.5 nM
[28] = molecular target: rHuman ErbB2/Fc Chimera, CF (Cat# 1129-ER) (human) (UniProt P04626); experiment: Multispot ECL; Fab 52.5 nM
[29] = molecular target: rHuman Erythropoietin R/Fc Chimera, CF (Cat# 963-ER) (human) (UniProt P19235); experiment: Multispot ECL; Fab 52.5 nM
[30] = molecular target: rHuman HGF R/c-MET/Fc Chimera, CF (Cat# 358-MT/CF) (human) (UniProt P08581); experiment: Multispot ECL; Fab 52.5 nM
[31] = molecular target: rHuman IGF-1 sR, (IGF-1 sR), CF (Cat# 391-GR) (human) (UniProt P08069); experiment: Multispot ECL; Fab 52.5 nM
[32] = molecular target: rHuman Notch-1/Fc Chimera, CF (Cat# 3647-TK) (human) (UniProt P46531); experiment: Multispot ECL; Fab 52.5 nM
[33] = molecular target: rHuman EGF R/Fc Chimera, CF (Cat# 344-ER) (human) (UniProt P00533); experiment: Multispot ECL; Fab 145 nM
[34] = molecular target: rHuman Erythropoietin R/Fc Chimera, CF (Cat# 963-ER) (human) (UniProt P19235); experiment: Multispot ECL; Fab 145 nM
[35] = molecular target: rHuman HGF R/c-MET/Fc Chimera, CF (Cat# 358-MT/CF) (human) (UniProt P08581); experiment: Multispot ECL; Fab 145 nM
[36] = molecular target: rHuman IGF-1 sR, (IGF-1 sR), CF (Cat# 391-GR) (human) (UniProt P08069); experiment: Multispot ECL; Fab 145 nM
[37] = molecular target: rHuman Notch-1/Fc Chimera, CF (Cat# 3647-TK) (human) (UniProt P46531); experiment: Multispot ECL; Fab 145 nM
[38] = molecular target: rHuman P-Cadherin/Fc Chimera, CF (Cat# 861-PC) (human) (UniProt P22223); experiment: Multispot ECL; Fab 145 nM
[39] = molecular target: rHuman EGF R/Fc Chimera, CF (Cat# 344-ER) (human) (UniProt P00533); experiment: Multispot ECL; Fab 580 nM
[40] = molecular target: rHuman ErbB2/Fc Chimera, CF (Cat# 1129-ER) (human) (UniProt P04626); experiment: Multispot ECL; Fab 580 nM
[41] = molecular target: rHuman Erythropoietin R/Fc Chimera, CF (Cat# 963-ER) (human) (UniProt P19235); experiment: Multispot ECL; Fab 580 nM
[42] = molecular target: rHuman HGF R/c-MET/Fc Chimera, CF (Cat# 358-MT/CF) (human) (UniProt P08581); experiment: Multispot ECL; Fab 580 nM
[43] = molecular target: rHuman IGF-1 sR, (IGF-1 sR), CF (Cat# 391-GR) (human) (UniProt P08069); experiment: Multispot ECL; Fab 580 nM
[44] = molecular target: rHuman Notch-1/Fc Chimera, CF (Cat# 3647-TK) (human) (UniProt P46531); experiment: Multispot ECL; Fab 580 nM
[45] = molecular target: rHuman P-Cadherin/Fc Chimera, CF (Cat# 861-PC) (human) (UniProt P22223); experiment: Multispot ECL; Fab 580 nM
[46] = molecular target: rHuman EGF R/Fc Chimera, CF (Cat# 344-ER) (human) (UniProt P00533); experiment: Multispot ECL; Fab 9.1 nM
[47] = molecular target: rHuman ErbB2/Fc Chimera, CF (Cat# 1129-ER) (human) (UniProt P04626); experiment: Multispot ECL; Fab 9.1 nM
[48] = molecular target: rHuman Erythropoietin R/Fc Chimera, CF (Cat# 963-ER) (human) (UniProt P19235); experiment: Multispot ECL; Fab 9.1 nM
[49] = molecular target: rHuman HGF R/c-MET/Fc Chimera, CF (Cat# 358-MT/CF) (human) (UniProt P08581); experiment: Multispot ECL; Fab 9.1 nM
[50] = molecular target: rHuman IGF-1 sR, (IGF-1 sR), CF (Cat# 391-GR) (human) (UniProt P08069); experiment: Multispot ECL; Fab 9.1 nM
[51] = molecular target: rHuman Notch-1/Fc Chimera, CF (Cat# 3647-TK) (human) (UniProt P46531); experiment: Multispot ECL; Fab 9.1 nM
[52] = molecular target: rHuman P-Cadherin/Fc Chimera, CF (Cat# 861-PC) (human) (UniProt P22223); experiment: Multispot ECL; Fab 9.1 nM
[53] = molecular target: rHuman EGF R/Fc Chimera, CF (Cat# 344-ER) (human) (UniProt P00533); experiment: Multispot ECL; Fab 36.3 nM
[54] = molecular target: rHuman ErbB2/Fc Chimera, CF (Cat# 1129-ER) (human) (UniProt P04626); experiment: Multispot ECL; Fab 36.3 nM
[55] = molecular target: rHuman Erythropoietin R/Fc Chimera, CF (Cat# 963-ER) (human) (UniProt P19235); experiment: Multispot ECL; Fab 36.3 nM
[56] = molecular target: rHuman HGF R/c-MET/Fc Chimera, CF (Cat# 358-MT/CF) (human) (UniProt P08581); experiment: Multispot ECL; Fab 36.3 nM
[57] = molecular target: rHuman IGF-1 sR, (IGF-1 sR), CF (Cat# 391-GR) (human) (UniProt P08069); experiment: Multispot ECL; Fab 36.3 nM
[58] = molecular target: rHuman Notch-1/Fc Chimera, CF (Cat# 3647-TK) (human) (UniProt P46531); experiment: Multispot ECL; Fab 36.3 nM
[59] = molecular target: rHuman P-Cadherin/Fc Chimera, CF (Cat# 861-PC) (human) (UniProt P22223); experiment: Multispot ECL; Fab 36.3 nM

ECL signal [1]: 3110
ECL signal [2]: 2440
ECL signal [3]: 357
ECL signal [4]: 277
ECL signal [5]: 444
ECL signal [6]: 478
ECL signal [7]: 803
ECL signal [8]: 655
Substance: Fab VH1-46_IGHD6-13*01_IGHJ4*01 & O1_IGKJ1*01

ECL signal [9]: 824
ECL signal [10]: 930
ECL signal [11]: 776
ECL signal [12]: 981
ECL signal [13]: 814
ECL signal [14]: 669
ECL signal [15]: 1620
ECL signal [16]: 1980
ECL signal [17]: 2120
ECL signal [18]: 2060
ECL signal [19]: 1430
ECL signal [20]: 1970
ECL signal [21]: 847
ECL signal [22]: 1030
ECL signal [23]: 695
ECL signal [24]: 849
ECL signal [25]: 743
ECL signal [26]: 726
ECL signal [27]: 1110
ECL signal [28]: 1510
ECL signal [29]: 1320
ECL signal [30]: 1290
ECL signal [31]: 911
ECL signal [32]: 1320
Substance: Fab VH4-31_IGHD2-15*01_IGHJ2*01 & V1-4_IGLJ4*01

ECL signal [33]: 856
ECL signal [34]: 845
ECL signal [35]: 1170
ECL signal [36]: 794
ECL signal [37]: 860
ECL signal [38]: 850
ECL signal [39]: 1630
ECL signal [40]: 1710
ECL signal [41]: 1580
ECL signal [42]: 2340
ECL signal [43]: 1360
ECL signal [44]: 1580
ECL signal [45]: 2240
ECL signal [46]: 800
ECL signal [47]: 987
ECL signal [48]: 697
ECL signal [49]: 894
ECL signal [50]: 788
ECL signal [51]: 754
ECL signal [52]: 589
ECL signal [53]: 831
ECL signal [54]: 1030
ECL signal [55]: 722
ECL signal [56]: 1060
ECL signal [57]: 799
ECL signal [58]: 633
ECL signal [59]: 684
Substance: Fab VH4-34_IGHD7-27*01_IGHJ4*01 & V1-4_IGLJ4*01
